Measured values reported in the nanobody polyreactivity screen of Harvey et al. (2022).

Test: yeast display, Sf9 membrane polyspecificity reagent, FACS + sequencing; frameworks hold sequencing errors
Summary of the method: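 Sorting gates, low and high (top ~1%), were placed on anti-HA fluorescence to track expression and on streptavidin fluorescence to track reagent binding. A clone's polyreactivity label is taken from the gate it came out of. The reagent was 10% biotinylated, detergent-solubilized Sf9 membrane, applied for 1 hour at 4 °C to galactose-induced yeast display cells.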

Sequence | polyreactivity (PSR sort gate)
QVQLVESGGGLVQAGGSLRLSCAASGLILKYYAMGWYRQAPGKEREFVAAISSSGTRTYADSVKGRFTISRDNAKNTVYLQMNSLKPEDTAVYYCAKDYRVWVAATIAHDYWGQGTQVTVSS | low polyreactivity
QVQLVESGGGLVQAGGSLRLSCAASGLILNYYTMGWYRQAPGKERELVATISSSTGSTYYADSVKGRFTISRDNAKNTVYLQMNSLKPEDTAVYYCASDHWSYWQIYDYWGQGTQVTVSS | low polyreactivity
QVQLVESGGGLVQAGGSLRLSCAASGLILQYYVMGWYIQAPGKERELVAAITRSGGGTYYADSVKGRFTISRDNAKNTVYLQMNSLKPEDSAVYYCAAQRQYGKFDYWGQGTQVTVSS | high polyreactivity
QVQLVESGGGLVQAGGSLRLSCAASGLILYTYAMGWYRQAPGKERELVAAINSGGRTYYADSVKGRFTISRDNAKNTVYLQMNSLKPEDTAVYYCAADYGSRVRGFNYWGQGTQVTVSS | low polyreactivity
QVQLVESGGGLVQAGGSLRLSCAASGLILYWYAMGWYRQAPGKERELVAVITRSGRTNYADSVKGRFTSSRDNAKNTVYLQMNSLKPEDTAVYYCAADYYTSFYSWPPYDYWGQGTQVTVSS | low polyreactivity
QVQLVESGGGLVQAGGSLRLSCAASGLISTYYVMGWYRQAPGQERELVAAIRASDASTYYADSVKGRFTISRDNAKNPVYLQMHSLKPEDTAVYYCAAETGFYSRFAFHRYNYWGQGTQVTVSS | low polyreactivity
QVQLVESGGGLVQAGGSLRLSCAASGLIYSAYAMGWYRQAPGKEREFVAAISRSGGITFYADSVKGRFTISRDNAKNTVYLQMNSLKPEDTAVYYCAARRSKYRRGGGYYWGQGTQVTVSS | high polyreactivity
QVQLVESGGGLVQAGGSLRLSCAASGLKFAHYAMGWYRQAPGKERELVAAISRSGGRTRYADSVKGRFTISRDQAKNTVYLQMNSLKAEDTAVYYCAAVGSVNYDADFDYWGQGTQVTVSS | high polyreactivity
QVQLVESGGGLVQAGGSLRLSCAASGLNFRQYAMGWYRKAPGKERELVAAITVTGGTTYYADSVKGRFTISRDNAKNTVYLQMNSLKPEDTAVYYCATRANYVGWTQFGHGYDYWGQGTQVTVSS | low polyreactivity
QVQLVESGGGLVQAGGSLRLSCAASGLNFYYYAMGWYRQAPGKESELVAAISGGGSTYYADSVKGRFTISRDNAKNTVYLQMNSLKPEDTAVYYCAASYWYPSWLYDYWGQGTQVTVSS | low polyreactivity
QVQLVESGGGLVQAGGSLRLSCAASGLNLKRYAMGCYTQAPGKERELVAAISKSGGSTYYADSVKGRFTISRDNAKNTVYLQMNSLKPEDTAVYYCAADSYNLWDDYWGQGTQVTVSS | low polyreactivity
QVQLVESGGGLVQAGGSLRLSCAASGLPFQEYAMGWYRQAPGKEREFVAAISASGGSTYYADSVKGRFTISRDNAKNTVYLQMNSLKPEDTAVYYCNKYGTVGYGSYGYWGQGTQVTVSS | high polyreactivity
QVQLVESGGGLVQAGGSLRLSCAASGLSFQSYAMGWYRQAPGKERELVAAISRRSGSTYYADSVKGRFTISRDNAKNTVYLQMNSLKPEDTAVYYCTTRRGERGYWGQGTQVTVSS | high polyreactivity
QVQLVESGGGLVQAGGSLRLSCAASGLSFYPNGMGWYREAPGKERELVAAITYSDGSTYYADSVKGRFSISRDNAKNTVYLQMNSLKPEDTAVYYGNRVTRWTYNYWGQGTQVTVSS | high polyreactivity
QVQLVESGGGLVQAGGSLRLSCAASGLTFADYAMGWYRQAPVKERELVAAISSSDTSTYYADSVKGRFTISRDNAKNTVYLQMNSLKPEDTAVYYCAADEGYVWPYYGWGFGKYDYWGQGTQVTVSS | low polyreactivity
QVQLVESGGGLVQAGGSLRLSCAASGLTFAGYAMGWYRQAPGKERELVAAITSGGSTYYADSVKGRFTISRDNAKNTVYLQMNSLKPEDTAVYYCAARRVRKALVGYGYWGQGTQVTVSS | high polyreactivity
QVQLVESGGGLVQAGGSLRLSCAASGLTFANYAIGWYRQAPGKERELVAAISTWSGGSTYYADSVKGRFTISRDNAKNTVYLQMNSLKPEDTAVYYCAARRYSRGRLPYDYWGQGTQVTVSS | high polyreactivity
QVQLVESGGGLVQAGGSLRLSCAASGLTFANYAMGWYRQAPGKERELVAAISTWSGGSTYYADSVKGRFTISRDHAKNTVYLQMNSLKPEDTAVYYCNTDRYWGKGDYWGQGTQVTVSS | high polyreactivity
QVQLVESGGGLVQAGGSLRLSCAASGLTFAPYVMGWYRQAPGKERELVPAISRSGGSTYYADSVKGRFTISRDNAKNTVYLQMNSLKPEDTAVYYCNRDVSLSAFDYWGQGTQVTVSS | high polyreactivity
QVQLVESGGGLVQAGGSLRLSCAASGLTFARNAMGWYRQAPGKERELVAAISSGGSTYYADSVKGRFTISRDNAKNPVYLQMNSLKPEDTAVYYCAARPIPRYYGKFWRVDYWGQGTQVTVSS | high polyreactivity
QVQLVESGGGLVQAGGSLRLSCAASGLTFASNALGWYRQAPWKERELVAGISRTGTTTYYADSVKGRFTISRDNAKNTVYLQMNSLKPEDTAVYYCAASKQAVKYRSQRYYYWGQGTQVTVSS | high polyreactivity
QVQLVESGGGLVQAGGSLRLSCAASGLTFASYAMGWYRQAPGKERDLVARISRSGGSTYYADSVKGRFTISRDNAKNTVYLQMNSLKPEDTAVYYCAADYIFRRYPVGGIYDYDYWGQGTQVTVSS | high polyreactivity

Sequence | polyreactivity (PSR sort gate)
QVQLVESGGGLVQAGGSLRLSCAASGLTFASYAMGWYRQSPGKERELVARISRSGGSTYYADSVKGRFTISRDNAKNTVYLQMNSLKPEDTAVYYCAARNSYGNWRYYYWGQGTQVTVSS | high polyreactivity
QVQLVESGGGLVQAGGSLRLSCAASGLTFAYNGLGWYRQAPGKEGELVAEISASGASTYYADSVKGRFTISRDNAKNTVYLQMNSLKPEDTAVYYCAAPAPYDGHYSIYSWAYTDDYWGQGTQVTVSS | low polyreactivity
QVQLVESGGGLVQAGGSLRLSCAASGLTFAYYAMGWYRQAPGKERELVAAISYSGGSTYYADSVKGRFTISRDNANKTVYLQMNSLKPEDTAVYYCNRDRNSGFYRRYGYWGQGTQVTVSS | high polyreactivity
QVQLVESGGGLVQAGGSLRLSCAASGLTFAYYAMGWYRQAPGKETELVAAISWNGARTYYADSVKGRFTISRDNSKNTVYLQMNSLKPEDTAVYYCAAVRSASSWQYIWLKYYYWGQGTQVTVSS | high polyreactivity
QVQLVESGGGLVQAGGSLRLSCAASGLTFAYYDMGWYIQAPGKEREMVAAITSGGTTNYADSVKGSFTISRDNANNTVYFQMNSLKPEDTAVYYCNADYYSRIVGVRIYEYWGQGTQVTVSS | low polyreactivity
QVQLVESGGGLVQAGGSLRLSCAASGLTFDGNAMGWYRQAPGKERELVAAITSSGGNTYYADSVKGRFTISRDNAKNTVYLQMNSLKPEDTAVYYCAAGGYRWSARTWSWVRYDYWGQGTQVTVSS | high polyreactivity
QVQLVESGGGLVQAGGSLRLSCAASGLTFDHNVMGWYRQAPGKERELVAAISRSGSSTYYADSVKGRFTISRDNAKNTVYLQMNSLKPEDTAVYYCAASDKRIYNLLRRYYYWGQGTQVTVSS | high polyreactivity
QVQLVESGGGLVQAGGSLRLSCAASGLTFDQYVMGWYRQAPGKERELVAAISRRGGGTYYADSVKGRFTISRDNAKNTVYLQMNSLKPEDTAVYYCNTDQAWRSWRGNYPFLTGNYWGQGTQVTVSS | high polyreactivity
QVQLVESGGGLVQAGGSLRLSCAASGLTFDRYAKGWYRQAPGKERELVAAITSGGSTYYADSVKGRFTISRDNAKNTVYLQMNSLKPEDTAVYYCAALVFRGRSFTHDYWGQGTQVTVSS | high polyreactivity
QVQLVESGGGLVQAGGSLRLSCAASGLTFDTYAMGWYRQAPGKERELVAAISIGGRTNYADSVKGRFTISRDNAKNTVYLQMNSLKPEDTAVYYCAVGAVVPGRRRRTYYYWGQGTQVTVSS | high polyreactivity
QVQLVESGGGLVQAGGSLRLSCAASGLTFDVYAMGWYRQAPGKERELVAALSTSGGRTYSADSVKGRFTISRDNAKNTVYLQMNSLKPEVTAVYYCNAGYDYYWRYYWYWYAFNYWGQGTQVTVSS | high polyreactivity
QVQLVESGGGLVQAGGSLRLSCAASGLTFDWYALGWYRQAPGKERELVAAISWNGVSTDYADSVKGRFTISRDNAKNTVYLQMNSLKPEDTAVYYCNAKGQRNKRWRGYWGQGTQVTVSS | high polyreactivity
QVQLVESGGGLVQAGGSLRLSCAASGLTFEDYAMGWNRQEPGKEREFVAAISTSGGRTYYADSVKGRFTISRDNAKNTVYLQMNSLKPEDTAVYYCAAGGWYGYVYRFYYWGQGTQVTVSS | high polyreactivity
QVQLVESGGGLVQAGGSLRLSCAASGLTFEKYAMGWYRQAPGKERELVAAISQDGGSTYYADSVKGRFTISRDNAKNTVYLQMNSLKPEDTAVYYCAAEDPDSWLPWDLFDYWGQGTQVTVSS | low polyreactivity
QVQLVESGGGLVQAGGSLRLSCAASGLTFEWYTMGWYRQAPGKERALVAVITVSGSSTYYADSVKGRFSISRDNAKNTVYFQMNSLKPEDTAVYYCNADWSFYSYTLYDYWGQGTQVTVSS | low polyreactivity
QVQLVESGGGLVQAGGSLRLSCAASGLTFFNYAMGWNRQAPGKERELVASITSGGSTNYADSVKGRFTISRDNAKNTVYLQMNSLNPEDTAVYYCAARYPYRTYKLSHSYARPYGYWGQGTQVTVSS | high polyreactivity
QVQLVESGGGLVQAGGSLRLSCAASGLTFFYYAMGWYRQAPGKERELVAGISRSGGSTYYADSVKGRFTISRDNAKNTVYLQMISLKPEDTAVYYCAKRTLVASYIYREGEYWGQGTQVTVSS | high polyreactivity
QVQLVESGGGLVQAGGSLRLSCAASGLTFFYYAMGWYRQAPGKERELVASISSSGITNYADSVKGRFTISRDNAKNTVYLQMNSLKPEDTAVYYCASQYYISPLRYYSPTGGYWGQGTQVTVSS | high polyreactivity
QVQLVESGGGLVQAGGSLRLSCAASGLTFGDYTMGWYRQAPGKERELVAAISTSGGSTYYADSVKGRFTISRDNAKNTVYLQMNSLKPEDTAVYYCNARRTHTRSHYYYWGQGTQVTVSS | high polyreactivity
QVQLVESGGGLVQAGGSLRLSCAASGLTFGDYTMGWYRQAPGKERELVAAITGSGASTYYADSVKGRFTISRDNAQNTGYLQMNSLKPEDTAVYYCDAERTPSYRAYDYWGQGTQVTVSS | low polyreactivity
QVQLVESGGGLVQAGGSLRLSCAASGLTFGDYTMGWYRQAPGKERELVAAITWSGASTYYADSVKGRFTISRDNAKNTVYLEMNSLKPEDTAGYYCAAERTPSYRAYDYWGQGTQVTVSS | low polyreactivity
